Reference: patent US20260042865A1 (Amgen, published 2026)

T1: Human ASGR1 protein (R&D Systems cat #4394-AS/CF) (human, UniProt P07306 62-291)
T1 construct: Bought protein; also called huASGR1
T1 sequence (looked up): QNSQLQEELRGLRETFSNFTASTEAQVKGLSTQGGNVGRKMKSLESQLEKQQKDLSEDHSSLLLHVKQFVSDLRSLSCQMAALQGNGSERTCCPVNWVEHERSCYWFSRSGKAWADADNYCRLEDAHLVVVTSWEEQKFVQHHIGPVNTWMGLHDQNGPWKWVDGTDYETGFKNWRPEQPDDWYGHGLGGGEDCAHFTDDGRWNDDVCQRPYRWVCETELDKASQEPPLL

T2: Mouse ASGR1 protein (R&D Systems cat #2755-AS/CF) (mouse, UniProt P34927 61-284, limits assumed)
T2 construct: Bought protein; also called muASGR1
T2 sequence (looked up): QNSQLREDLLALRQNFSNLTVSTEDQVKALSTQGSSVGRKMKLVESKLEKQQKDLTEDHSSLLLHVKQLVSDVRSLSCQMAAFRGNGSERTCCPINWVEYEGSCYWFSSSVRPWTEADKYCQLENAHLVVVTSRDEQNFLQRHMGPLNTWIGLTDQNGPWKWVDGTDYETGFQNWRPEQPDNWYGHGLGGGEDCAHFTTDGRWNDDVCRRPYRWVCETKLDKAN


Legend:
[1] = target: T1, Human ASGR1 protein (R&D Systems cat …); experiment: SPR (BIAcore 3000), human ASGR1 immobilized, pH 7.4 with 2 mM Ca2+
Protocol: (§1) The binding of anti-ASGR1 antibodies binding ASGR1 in a pH/Ca2+ dependent or independent manner was assessed by BIAcore. Equilibrium binding affinities of the interaction between (i) mouse or human ASGR1 and anti-ASGR1 antibodies; and (ii) mouse or human ASGR1 and bispecific scFv molecules of the present inventions were determined using BIAcore 3000. Mouse and human ASGR1 proteins were obtained from R&D-systems (cat #2755-AS/CF and 4394-AS/CF, respectively) and immobilized on CM5 chips using amine coupling chemistry to a density of ˜1500 RU. On each CM5 chip a reference flow cell is used which was coupled with coupling buffer only. Antibodies were injected over immobilized ASGR1 at a concentration range of 1000 nM-0.2 nM, with a two-fold serial dilution. To determine pH/Ca-sensitive binding, runs were performed using phosphate buffered saline (PBS) with 0.01% (v/v) Tween20 and 0.05% azide with either pH 7.4/2 mM calcium chloride or pH 6.0/2 μM calcium chloride. The chip was regenerated using 0.15 M NaCl, 0.1 M glycine pH 1.5 buffer between each injection cycles. Equilibrium dissociation constants were determined using 1:1 interaction model using BIAevaluation.

[2] = target: T2, Mouse ASGR1 protein (R&D Systems cat …); experiment: SPR (BIAcore 3000), mouse ASGR1 immobilized, pH 7.4 with 2 mM Ca2+; pH 7.4 with 2 mM Ca2+; Table 3 experiment (comparison with bispecific scFv)
Protocol: as §1

[3] = target: T2, Mouse ASGR1 protein (R&D Systems cat …); experiment: SPR (BIAcore 3000), mouse ASGR1 immobilized, antibody analyte, pH 7.4, 2 mM CaCl2; pH 7.4, 2 mM CaCl2; Table 1 experiment
[4] = target: T2, Mouse ASGR1 protein (R&D Systems cat …); experiment: SPR (BIAcore 3000), mouse ASGR1 immobilized, antibody analyte, pH 7.4, 2 mM CaCl2
Protocol: (§2) Antibodies binding to ASGR1 in a pH/Ca2+-dependent manner were screened by employing surface plasmon resonance. Antibodies were screened either at pH 7.4 with 2 mM CaCl2 or at pH 6.0 with 2 μM CaCl2 to analyze the binding to ASGR1. KD values were determined by immobilizing receptor on the chip and antibodies as analytes.
(§3) Equilibrium binding affinities of the interaction between mouse ASGR1 and anti-ASGR1 antibodies were determined using BIAcore 3000. Mouse ASGR1 protein was obtained from R&D-systems (cat #2755-AS/CF) and immobilized on CM5 chips using amine coupling chemistry to a density of ˜1500 RU. On each CM5 chip a reference flow cell is used which was coupled with coupling buffer only. Antibodies were injected over immobilized ASGR1 at a concentration range of 1000 nM-0.2 nM, with a two-fold serial dilution. To determine pH/Ca-sensitive binding, runs were performed using phosphate buffered saline (PBS) with 0.01% (v/v) Tween20 and 0.05% azide with either pH 7.4/2 mM calcium chloride or pH 6.0/2 μM calcium chloride. The chip was regenerated using 0.15 M NaCl, 0.1 M glycine pH 1.5 buffer between each injection cycles. Equilibrium dissociation constants were determined using 1:1 interaction model using BIAevaluation.

[5] = target: T2, Mouse ASGR1 protein (R&D Systems cat …); experiment: SPR (BIAcore 3000), mouse ASGR1 immobilized, antibody analyte, pH 6, 2 uM CaCl2
Protocol: as §2, §3

[6] = target: T2, Mouse ASGR1 protein (R&D Systems cat …); experiment: SPR (BIAcore 3000), mouse ASGR1 immobilized, pH 7.4 with 2 mM Ca2+
Protocol: as §1

| Binder | Kd [1] [nM] | Kd [2] [nM] | Kd [3] [nM] | Kd [4] [nM] | Kd [5] [nM] | Kd [6] [nM] |
| --- | --- | --- | --- | --- | --- | --- |
| Catabolic anti-ASGR1 antibody (antibody, human IgG1, kappa, N297G, V domains shown, also called CAT-WT; CAT mAb) VH: QVQLVESGGGVVQPGRSLRLSCAASGFTFSSYGMHWVRQAPGKGLEWVAVIWYDGSNKYYADSVKGRFTISRDNSKNTLYLQMNSLRAEDTAVYYCARDSSPYGMDVWGQGTTVTVSS VL: DIQMTQSPSSVSASVGDRVTITCRASQGISSWLAWYQQKPGKAPKLLIYGASSLQSGVPSRFSASGSGTDFTLTISSLQPEDFATYYCQQSDSFPRTFGQGTKVEIKR | 4 | 12.1 | 20 |  |  |  |
| Non-catabolic anti-ASGR1 antibody (antibody, human IgG1, kappa, N297G, V domains shown, also called Non-CAT-WT; non-CAT mAb) VH: EVQLVESGGGLVQPGRSLKLSCAASGFTFSDYNMAWVRQAPKKGLEWVATIIYDGGSTYYRHSVKGRFTISRDNAKSTHSLQMDSLRSEDTATYYCARQTYFGSRDYFDYWGQGVMVTVSS VL: DIQMTQSPTSLSASLGETVSIECLTSEDIYNNLAWYQQKPGKSPQLLISYASNFQDGVPSRFSGSGSGTQYSLKINSLESEDAATYFCLQDSEYPPTFGGGTKLELKR |  |  |  | 6 | 5.5 |  |
| Catabolic bispecific scFv molecule (binds ASGR1 in a catabolic manner and Ig in a non-catabolic manner) (bispecific antibody, Single chain: anti-IgG scFv, SG4S linker, catabolic anti-ASGR1 scFv, C-terminal 6xHis; also called CAT bispecific scFv molecule; CAT-bispecific scFv molecule) scFv: ELQLQQSGAELVRPGASVKLSCTTSGFNVKDTYIHWVRQRPEQGLEWIGRIDPANGNTKYDPKFQDRATITTDTSSITAYLQLSSLTSEDTAVYYCARNYGSNYDPMDYWGQGTSLTVSSGGGGSGGGGSGGGGSDILLTQSPAILSVSPGERVSFSCRASQNIDTNIHWYQRRTNDSPRLLIKYASESISGIPSRFSGSGSGTDFTLSINSVESEDIADYYCQQSDTWPWTFGGGTKLEIKRSGGGGSQVQLVESGGGVVQPGRSLRLSCAASGFTFSSYGMHWVRQAPGKGLEWVAVIWYDGSNKYYADSVKGRFTISRDNSKNTLYLQMNSLRAEDTAVYYCARDSSPYGMDVWGQGTTVTVSSGGGGSGGGGSGGGGSDIQMTQSPSSVSASVGDRVTITCRASQGISSWLAWYQQKPGKAPKLLIYGASSLQSGVPSRFSASGSGTDFTLTISSLQPEDFATYYCQQSDSFPRTFGQGTKVEIKRHHHHHH | 23 |  |  |  |  | 78.3 |
